This test has as its target T1, TNFR1 (Homo sapiens, UniProt P19438).
T1 chain: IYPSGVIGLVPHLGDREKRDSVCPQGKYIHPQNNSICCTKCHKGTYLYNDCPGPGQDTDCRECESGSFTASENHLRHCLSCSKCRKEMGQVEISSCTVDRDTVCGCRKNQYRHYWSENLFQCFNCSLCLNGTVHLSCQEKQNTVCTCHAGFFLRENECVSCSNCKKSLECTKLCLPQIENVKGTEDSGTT
In words: yeast display SC50.

Substitutions are numbered along the chain they refer to. Names may count otherwise.

B1: L39T (designed binder)
chain: MTLQELLREEALRRAEAEAFRYALELLAEKFPEQKEYLTDLAEEIESQIRSLSGVDVEDVRKFLDKEWAWVKELLAEHPAELAEVEAARAARLAELRAEVEAKVAA
As to B1, the “apparent Kd (screen)” value is 2.05 nM.

B2: R14Y (designed binder)
chain: B1 chain with R14Y, T39L
Turning to B2, the “apparent Kd (screen)” value amounted to 0.49 nM.

B3: L12Q (designed binder)
chain: B1 chain with L12Q, T39L
On to B3, for which the “apparent Kd (screen)” value came to 0.79 nM.

B4: L24K (designed binder)
chain: B1 chain with L24K, T39L
Regarding B4, the “apparent Kd (screen)” value amounted to 11.4 nM.

B5: P32C (designed binder)
chain: B1 chain with P32C, T39L
Turning to B5, the “apparent Kd (screen)” value is 0.539 nM.

B6: R61L (designed binder)
chain: B1 chain with T39L, R61L
As for B6, the “apparent Kd (screen)” value came to 0.539 nM.

B7: L74S (designed binder)
chain: B1 chain with T39L, L74S
Take B7: the “apparent Kd (screen)” value stood at 2.25 nM.

B8: E18F (designed binder)
chain: B1 chain with E18F, T39L
B8: the “apparent Kd (screen)” value was determined as 0.539 nM.

B9: K35M (designed binder)
chain: B1 chain with K35M, T39L
Turning to B9, the “apparent Kd (screen)” value was determined as 0.446 nM.

B10: E16A (designed binder)
chain: B1 chain with E16A, T39L
As to B10, the “apparent Kd (screen)” value amounted to 0.539 nM.

B11: D59C (designed binder)
chain: B1 chain with T39L, D59C
In the case of B11, the “apparent Kd (screen)” value amounted to 13.8 nM.

B12: A102Q (designed binder)
chain: B1 chain with T39L, A102Q
As to B12, the “apparent Kd (screen)” value stood at 0.539 nM.

B13: E5A (designed binder)
chain: B1 chain with E5A, T39L
With B13, the “apparent Kd (screen)” value was 0.79 nM.

B14: E73S (designed binder)
chain: B1 chain with T39L, E73S
As to B14, the “apparent Kd (screen)” value amounted to 0.539 nM.

B15: W70S (designed binder)
chain: B1 chain with T39L, W70S
Turning to B15, the “apparent Kd (screen)” value is 12.5 nM.

B16: E58G (designed binder)
chain: B1 chain with T39L, E58G
Regarding B16, the “apparent Kd (screen)” value turned out to be 0.49 nM.

B17: L3D (designed binder)
chain: B1 chain with L3D, T39L
Take B17: the “apparent Kd (screen)” value amounted to 0.718 nM.

B18: D65T (designed binder)
chain: B1 chain with T39L, D65T
On to B18, for which the “apparent Kd (screen)” value was found to be 0.593 nM.

B19: L41F (designed binder)
chain: B1 chain with T39L, L41F
As for B19, the “apparent Kd (screen)” value came to 0.79 nM.

B20: L64Y (designed binder)
chain: B1 chain with T39L, L64Y
Consider B20, for which the “apparent Kd (screen)” value was found to be 0.49 nM.

B21: D59K (designed binder)
chain: B1 chain with T39L, D59K
Consider B21, for which the “apparent Kd (screen)” value stood at 0.869 nM.

B22: Q34N (designed binder)
chain: B1 chain with Q34N, T39L
For the molecule B22, the “apparent Kd (screen)” value was found to be 0.539 nM.

B23: W68Q (designed binder)
chain: B1 chain with T39L, W68Q
Consider B23, for which the “apparent Kd (screen)” value came out at 5.31 nM.

B24: P32K (designed binder)
chain: B1 chain with P32K, T39L
For B24, the “apparent Kd (screen)” value was 0.653 nM.

B25: A15Q (designed binder)
chain: B1 chain with A15Q, T39L
Take B25: the “apparent Kd (screen)” value is 0.718 nM.

B26: E10C (designed binder)
chain: B1 chain with E10C, T39L
B26: the “apparent Kd (screen)” value came out at 16.7 nM.

B27: K72T (designed binder)
chain: B1 chain with T39L, K72T
Regarding B27, the “apparent Kd (screen)” value was determined as 0.718 nM.

B28: V57C (designed binder)
chain: B1 chain with T39L, V57C
Regarding B28, the “apparent Kd (screen)” value was found to be 0.539 nM.

B29: E29F (designed binder)
chain: B1 chain with E29F, T39L
On to B29, for which the “apparent Kd (screen)” value is 0.653 nM.

B30: L26V (designed binder)
chain: B1 chain with L26V, T39L
As to B30, the “apparent Kd (screen)” value is 0.79 nM.

B31: A98Q (designed binder)
chain: B1 chain with T39L, A98Q
With B31, the “apparent Kd (screen)” value is 0.653 nM.

B32: S47F (designed binder)
chain: B1 chain with T39L, S47F
On to B32, for which the “apparent Kd (screen)” value came out at 0.49 nM.

B33: V85G (designed binder)
chain: B1 chain with T39L, V85G
As to B33, the “apparent Kd (screen)” value was determined as 0.718 nM.

B34: D40A (designed binder)
chain: B1 chain with T39L, D40A
As to B34, the “apparent Kd (screen)” value came out at 0.539 nM.

B35: L24C (designed binder)
chain: B1 chain with L24C, T39L
As to B35, the “apparent Kd (screen)” value came to 0.593 nM.

B36: R8H (designed binder)
chain: B1 chain with R8H, T39L
On to B36, for which the “apparent Kd (screen)” value came out at 0.869 nM.

B37: G54L (designed binder)
chain: B1 chain with T39L, G54L
B37: the “apparent Kd (screen)” value was 16.7 nM.

B38: M1N (designed binder)
chain: B1 chain with M1N, T39L
With B38, the “apparent Kd (screen)” value came to 0.49 nM.

B39: L12R (designed binder)
chain: B1 chain with L12R, T39L
In the case of B39, the “apparent Kd (screen)” value was 0.49 nM.

B40: I49G (designed binder)
chain: B1 chain with T39L, I49G
Regarding B40, the “apparent Kd (screen)” value was determined as 1.05 nM.

B41: E67A (designed binder)
chain: B1 chain with T39L, E67A
B41: the “apparent Kd (screen)” value is 12.5 nM.

B42: E5V (designed binder)
chain: B1 chain with E5V, T39L
With B42, the “apparent Kd (screen)” value stood at 0.593 nM.

B43: K62H (designed binder)
chain: B1 chain with T39L, K62H
As to B43, the “apparent Kd (screen)” value is 0.718 nM.

B44: E73W (designed binder)
chain: B1 chain with T39L, E73W
As to B44, the “apparent Kd (screen)” value amounted to 0.653 nM.

B45: W70V (designed binder)
chain: B1 chain with T39L, W70V
For the molecule B45, the “apparent Kd (screen)” value was found to be 20.2 nM.

B46: A19P (designed binder)
chain: B1 chain with A19P, T39L
In the case of B46, the “apparent Kd (screen)” value was found to be 9.41 nM.

B47: D56Y (designed binder)
chain: B1 chain with T39L, D56Y
For the molecule B47, the “apparent Kd (screen)” value amounted to 2.25 nM.

B48: Q48M (designed binder)
chain: B1 chain with T39L, Q48M
Regarding B48, the “apparent Kd (screen)” value came to 1.16 nM.

B49: L3F (designed binder)
chain: B1 chain with L3F, T39L
For B49, the “apparent Kd (screen)” value came out at 2.25 nM.

B50: M1H (designed binder)
chain: B1 chain with M1H, T39L
B50: the “apparent Kd (screen)” value is 0.539 nM.

B51: L93Q (designed binder)
chain: B1 chain with T39L, L93Q
In the case of B51, the “apparent Kd (screen)” value worked out at 0.539 nM.

B52: P79G (designed binder)
chain: B1 chain with T39L, P79G
In the case of B52, the “apparent Kd (screen)” value worked out at 0.956 nM.

B53: K72A (designed binder)
chain: B1 chain with T39L, K72A
In the case of B53, the “apparent Kd (screen)” value stood at 0.869 nM.

B54: E67I (designed binder)
chain: B1 chain with T39L, E67I
As to B54, the “apparent Kd (screen)” value turned out to be 6.43 nM.

B55: L7R (designed binder)
chain: B1 chain with L7R, T39L
As for B55, the “apparent Kd (screen)” value was determined as 8.56 nM.

(Values after PMC12416549 (2024).)
